Series [1] is described as follows: Auto-ADP-ribosylation of PI-PLC released recombinant ART2 proteins with [^32P]NAD, SDS-PAGE. Conditions: for auto-ADP-ribosylation at multiple sites (decrease in mobility on SDS-PAGE): 10 μM [^32P]NAD, followed by 5 mM unlabeled NAD; for auto-ADP-ribosylation: [^32P]NAD added to PI-PLC released protein, SDS-PAGE. Format: biochemical, rat. As for the experimental part:
To investigate the structural basis for these differences in catalytic function, site-specific mutagenesis was employed with synthesis of recombinant ART2b and ART2a proteins in rat adenocarcinoma cells (NMU) under a dexamethasone-sensitive promoter. After induction and expression of the GPI-anchored proteins, cells were incubated with PI-PLC to cleave the GPI anchor and then [^32P]-NAD was added to the medium to promote auto-ADP-ribosylation of the released protein (FIG. 2).
To assess the ability of ART2 proteins, ART2a and ART2b, to be auto-ADP-ribosylated at multiple sites, proteins were incubated first with 10 μM [^32P]NAD, followed by addition of 5 mM unlabeled NAD and further incubation (FIG. 4). […] It is unlikely that auto-modification was due to non-enzymatic addition of [^32P]ADP-ribose since reactions were carried out in the presence of 1 mM ADP-ribose, or due to NAD binding, since the radiolabel was not displaced by incubation with 5 mM NAD.

For series [2], the target named is T1, ART2b(R204K) (Rattus norvegicus, UniProt P20974, R204K).
T1 construct: made in house; host or cells: rat mammary adenocarcinoma (NMU) cells, pMAMneo vector, dexamethasone-induced; released with PI-PLC
T1 sequence (P20974 21-246 R204K limits assumed): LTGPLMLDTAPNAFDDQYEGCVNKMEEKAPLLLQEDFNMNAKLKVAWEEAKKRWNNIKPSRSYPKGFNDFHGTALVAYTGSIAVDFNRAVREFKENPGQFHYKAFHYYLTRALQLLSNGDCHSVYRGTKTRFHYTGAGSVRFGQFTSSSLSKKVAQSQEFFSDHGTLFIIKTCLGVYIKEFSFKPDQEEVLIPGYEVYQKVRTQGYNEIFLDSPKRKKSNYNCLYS
Kind of series: Incubation of wildtype ART2b with ART2b(R204K) and millimolar NAD (intermolecular modification). The settings on record: millimolar NAD, with or without ART2b(R204K). Type of series: biochemical. As for the experimental part:
The blots contain samples from cells expressing wild type ART2b (lanes 1), ART2b(R204K) (lanes 2), or a mixtures of samples containing ART2b and ART2b(R204K) (lanes 3). Samples were incubated with or without 10 μM [^32P]NAD followed by either TCA precipitation or further incubation with 5 mM NAD. The radiolabeled wild type ART2b and ART2b(R204K) proteins were combined and then incubated with or without 5 mM NAD.
To investigate whether ART2b(R204K) could be modified, wildtype ART2b was incubated with its mutant ART2b(R204K) and millimolar NAD (FIG. 5).

A short description of series [3]: NAD glycohydrolase (NADase) assay. Type of series: biochemical, rat. The settings on record: for NADase activity during the course of the reaction (rate of NAD hydrolysis): change over the course of the reaction; for NADase activity: PI-PLC released recombinant protein from NMU cells, 0.1 mM [carbonyl-^14C]NAD, 1 hour at 30° C. As to the method:
(§1) NADase activity was measured in DPBS with 0.1 mM [carbonyl-^14C]NAD (8×10^4 cpm) for 1 hour at 30° C., (total volume=150,u). Samples (50,u) were applied to AG1-X2 (BIO-RAD, Hercules, Calif.) columns (0.4×4 cm), equilibrated and eluted with water for liquid scintillation counting as described (Moss et al., Proc Natl Acad Sci U S A 73(12):4424-7, 1976). Transferase activity was assayed similarly with or without 20 mM agmatine as ADP-ribose acceptor and with [adenine-^14C]NAD substituted for [carbonyl-^14C]NAD.

Series [4] is described as follows: ADP-ribosyltransferase assay with agmatine as ADP-ribose acceptor. Type of series: biochemical, rat. The settings on record: 20 mM agmatine as ADP-ribose acceptor. As for the experimental part:
as §1

Entries after “also recorded” stand apart in the source; their conditions may differ.

B1: ART2b(R204K): rat ART2b with arginine-to-lysine substitution at position 204 (protein)
chain: LTGPLMLDTAPNAFDDQYEGCVNKMEEKAPLLLQEDFNMNAKLKVAWEEAKKRWNNIKPSRSYPKGFNDFHGTALVAYTGSIAVDFNRAVREFKENPGQFHYKAFHYYLTRALQLLSNGDCHSVYRGTKTRFHYTGAGSVRFGQFTSSSLSKKVAQSQEFFSDHGTLFIIKTCLGVYIKEFSFKPDQEEVLIPGYEVYQKVRTQGYNEIFLDSPKRKKSNYNCLYS
Consider B1, for which, in series [1], the “auto-ADP-ribosylation at multiple sites (decrease in mobility on SDS-PAGE)” value is reported as “not modified by incubation with NAD”; the auto-ADP-ribosylation entry was “abolished both the primary and secondary modifications”. In addition, in series [2], the “modification (mobility on SDS-PAGE) after incubation of wildtype ART2b with ART2b(R204K) and NAD” value was “not modified by wildtype ART2b in an intermolecular reaction”. Besides, the “NADase activity during the course of the reaction (rate of NAD hydrolysis)” value (“NADase activity during the course” below) in series [3] is recorded as “did not change”.

B2: ART2a(M81R): rat ART2a with methionine-to-arginine substitution at position 81 (protein)
chain: LTGPLMLDTAPNAFDDQYEGCVNKMEEKAPLLLKEDFNKSEKLKVAWEEAKKRWNNIKPSRSYPKGFNDFHGTALVAYTGSIGVDFNRAVREFKENPGQFHYKAFHYYLTRALQLLSNGDCHSVYRGTKTRFHYTGAGSVRFGQFTSSSLSKTVAQSPEFFSDDGTLFIIKTCLGVYIKEFSFYPDQEEVLIPGYEVYQKVRTQGYNEIFLDSPKRKKSNYNCLYS
For the molecule B2, the auto-ADP-ribosylation result in series [1] is “had no effect”.

B3: ART2a(59MNA61,Y204R): rat ART2a with K59M, S60N, E61A and Y204R substitutions, non-glycosylated (protein, UniProt P17982 21-246, looked up, variant K59M S60N E61A Y204R)
T-cell …: LTGPLMLDTAPNAFDDQYEGCVNKMEEKAPLLLKEDFNMNAKLKVAWEEAKKRWNNIKPSMSYPKGFNDFHGTALVAYTGSIGVDFNRAVREFKENPGQFHYKAFHYYLTRALQLLSNGDCHSVYRGTKTRFHYTGAGSVRFGQFTSSSLSKTVAQSPEFFSDDGTLFIIKTCLGVYIKEFSFRPDQEEVLIPGYEVYQKVRTQGYNEIFLDSPKRKKSNYNCLYS
As to B3, the “auto-ADP-ribosylation at multiple sites (decrease in mobility on SDS-PAGE)” value in series [1] was “exhibited auto-ADP-ribosylation following incubation with 5 mM NAD”.

B4: ART2b(R81K): rat ART2b with arginine-to-lysine substitution at position 81 (protein)
chain: LTGPLMLDTAPNAFDDQYEGCVNKMEEKAPLLLQEDFNMNAKLKVAWEEAKKRWNNIKPSKSYPKGFNDFHGTALVAYTGSIAVDFNRAVREFKENPGQFHYKAFHYYLTRALQLLSNGDCHSVYRGTKTRFHYTGAGSVRFGQFTSSSLSKKVAQSQEFFSDHGTLFIIKTCLGVYIKEFSFRPDQEEVLIPGYEVYQKVRTQGYNEIFLDSPKRKKSNYNCLYS
On to B4, for which, in series [1], the “auto-ADP-ribosylation at multiple sites (decrease in mobility on SDS-PAGE)” value is recorded as “exhibited auto-ADP-ribosylation following incubation with 5 mM NAD” and the auto-ADP-ribosylation entry is “no effect on auto-ADP-ribosylation”.

B5: ART2a(M81R,Y204R): rat ART2a with M81R and Y204R substitutions (protein, UniProt P17982 21-246, looked up, variant M81R Y204R)
T-cell …: LTGPLMLDTAPNAFDDQYEGCVNKMEEKAPLLLKEDFNKSEKLKVAWEEAKKRWNNIKPSRSYPKGFNDFHGTALVAYTGSIGVDFNRAVREFKENPGQFHYKAFHYYLTRALQLLSNGDCHSVYRGTKTRFHYTGAGSVRFGQFTSSSLSKTVAQSPEFFSDDGTLFIIKTCLGVYIKEFSFRPDQEEVLIPGYEVYQKVRTQGYNEIFLDSPKRKKSNYNCLYS
As for B5, in series [1], the “auto-ADP-ribosylation at multiple sites (decrease in mobility on SDS-PAGE)” value is recorded as “exhibited auto-ADP-ribosylation following incubation with 5 mM NAD”; the auto-ADP-ribosylation entry was “auto-ADP-ribosylation of both glycosylated 33 kDa and nonglycosylated 29 kDa forms was observed”.

B6: ART2b(R204W): rat ART2b with arginine-to-tryptophan substitution at position 204 (protein, UniProt P20974 21-246, looked up, variant R204W)
T-cell …: LTGPLMLDTAPNAFDDQYEGCVNKMEEKAPLLLQEDFNMNAKLKVAWEEAKKRWNNIKPSRSYPKGFNDFHGTALVAYTGSIAVDFNRAVREFKENPGQFHYKAFHYYLTRALQLLSNGDCHSVYRGTKTRFHYTGAGSVRFGQFTSSSLSKKVAQSQEFFSDHGTLFIIKTCLGVYIKEFSFWPDQEEVLIPGYEVYQKVRTQGYNEIFLDSPKRKKSNYNCLYS
Consider B6, for which, in series [1], the “auto-ADP-ribosylation at multiple sites (decrease in mobility on SDS-PAGE)” value is “weak auto-ADP-ribosylation activity at multiple sites” and the auto-ADP-ribosylation result is given as “auto-ADP-ribosylation at non-arginine sites”. For the same molecule, the “transfer of ADP-ribose to agmatine” value in series [4] is given as “unable to transfer ADP-ribose to agmatine”. Also, in series [3], the NADase activity entry is “greater than that of wild-type ART2b” and the “NADase activity during the course” value is reported as “decreased during the course of the reaction”.

B7: ART2a(Y204R): rat ART2a with tyrosine-to-arginine substitution at position 204 (protein)
chain: LTGPLMLDTAPNAFDDQYEGCVNKMEEKAPLLLKEDFNKSEKLKVAWEEAKKRWNNIKPSMSYPKGFNDFHGTALVAYTGSIGVDFNRAVREFKENPGQFHYKAFHYYLTRALQLLSNGDCHSVYRGTKTRFHYTGAGSVRFGQFTSSSLSKTVAQSPEFFSDDGTLFIIKTCLGVYIKEFSFRPDQEEVLIPGYEVYQKVRTQGYNEIFLDSPKRKKSNYNCLYS
For B7, in series [1], the “auto-ADP-ribosylation at multiple sites (decrease in mobility on SDS-PAGE)” value is on record as “exhibited auto-ADP-ribosylation following incubation with 5 mM NAD”; the auto-ADP-ribosylation result was “auto-ADP-ribosylation of both glycosylated 33 kDa and nonglycosylated 29 kDa forms was observed”.

B8: ART2a: rat ADP-ribosyltransferase ART2a (RT6.1), SEQ ID NO:11, wild type (protein, listed as Rattus norvegicus)
chain: MPSNICKFFLTWWLIQQVTGLTGPLMLDTAPNAFDDQYEGCVNKMEEKAPLLLKEDFNKSEKLKVAWEEAKKRWNNIKPSMSYPKGFNDFHGTALVAYTGSIGVDFNRAVREFKENPGQFHYKAFHYYLTRALQLLSNGDCHSVYRGTKTRFHYTGAGSVRFGQFTSSSLSKTVAQSPEFFSDDGTLFIIKTCLGVYIKEFSFYPDQEEVLIPGYEVYQKVRTQGYNEIFLDSPKRKKSNYNCLYSSAGTRESCVSLFLVVLTSLLVQLLCLAEP
On to B8, for which the auto-ADP-ribosylation result in series [1] is “not significantly auto-modified”. Also, the NADase activity entry in series [3] is “have NADase activity”.

B9: ART2b: rat ADP-ribosyltransferase ART2b (RT6.2), SEQ ID NO:12, wild type (protein, listed as Rattus norvegicus)
chain: MPSNICKFFLTWWLIQQVTGLTGPLMLDTAPNAFDDQYEGCVNKMEEKAPLLLQEDFNMNAKLKVAWEEAKKRWNNIKPSRSYPKGFNDFHGTALVAYTGSIAVDFNRAVREFKENPGQFHYKAFHYYLTRALQLLSNGDCHSVYRGTKTRFHYTGAGSVRFGQFTSSSLSKKVAQSQEFFSDHGTLFIIKTCLGVYIKEFSFRPDQEEVLIPGYEVYQKVRTQGYNEIFLDSPKRKKSNYNCLYSSAGARESCVSLFLVVLPSLLVQLLCLAEP
For B9, in series [1], the “auto-ADP-ribosylation at multiple sites (decrease in mobility on SDS-PAGE)” value is “exhibited auto-ADP-ribosylation following incubation with 5 mM NAD” and the auto-ADP-ribosylation entry is “significantly auto-ADP-ribosylated; also recorded: Multiple species of auto-ADP-ribosylated”. Also, in series [2], the “modification (mobility on SDS-PAGE) after incubation of wildtype ART2b with ART2b(R204K) and NAD” value is on record as “exhibited decreasing mobility on SDS-PAGE”. Besides, the “transfer of ADP-ribose to agmatine” value in series [4] was “unable to transfer ADP-ribose to agmatine”. In addition, in series [3], the NADase activity result was “have NADase activity” and the “NADase activity during the course” value is reported as “decreased during the course of the reaction”.

These data come from patent US7923535B2, “Tryptophan as a functional replacement for ADP-ribose-arginine in recombinant proteins” (The United States of America as represented by the …, priority 2002, dated 2011).
